Results reported in patent publication US20250101129A1, “AFFINITY SUBSTANCE, COMPOUND, AND ANTIBODY AND THEIR SALTS” (Ajinomoto Co., Inc., priority 2022, published 2025).

What was measured:
[1] = target: EGFR on A-431 cells (EGFR-positive) (UniProt P00533); assay: flow cytometry on A-431 cells, Alexa Fluor 488 anti-human IgG secondary antibody
[2] = target: Recombinant human EGFR-Fc (R&D Systems), biotinylated (human) (UniProt P00533); assay: SPR Biacore T200, biotinylated human EGFR-Fc on Biotin CAPture chip, antibody as analyte, single cycle kinetics, 1:1 model
[3] = target: Biotinylated recombinant human FcRn (Immunitrack) (human) (UniProt P55899); assay: SPR Biacore T200, biotinylated human FcRn on chip SA, association at pH 6.0, single cycle kinetics, 1:1 model; dissociated at pH 7.4
[4] = target: EGFR on A-431 cells (EGFR-positive) (UniProt P00533); assay: flow cytometry, primary antibody then Alexa Fluor 488 goat anti-human IgG (H+L), A-431 cells; histogram peak at about 10^5, gate from a little above 10^4
[5] = target: HER2 on SKBR-3 cells (HER2-positive) (UniProt P04626); assay: flow cytometry, primary antibody then Alexa Fluor 488 goat anti-human IgG (H+L), SKBR-3 cells; histogram peak between 10^3 and 10^4, gate from a little below 10^3
[6] = target: Recombinant human HER2-Fc (R&D Systems), biotinylated (human) (UniProt P04626); assay: SPR Biacore T200, biotinylated human HER2-Fc on Biotin CAPture chip, antibody as analyte, single cycle kinetics, 1:1 model
[7] = target: Recombinant human HER2-Fc (R&D Systems), biotinylated (human) (UniProt P04626); assay: SPR (Biacore T200), single cycle kinetics, ligand biotinylated HER2-Fc on Biotin CAPture chip, HBS-EP+, 1:1 binding model
[8] = target: EGFR on A-431 cells (EGFR-positive) (UniProt P00533); assay: flow cytometry, primary antibody then Alexa Fluor 488 goat anti-human IgG (H+L), A-431 cells; histogram peak a little above 10^5, gate from a little above 10^4
[9] = target: Recombinant human PD-1-Fc (R&D Systems), biotinylated (human) (UniProt Q15116); assay: SPR Biacore T200, biotinylated human PD-1-Fc on Biotin CAPture chip, antibody as analyte, single cycle kinetics, 1:1 model
[10] = target: EGFR on A-431 cells (EGFR-positive) (UniProt P00533); assay: flow cytometry on A431 (EGFR+) cells, fraction of cells in the positive gate, x axis EGFR-BL-1H, Alexa Fluor 488 anti-human IgG secondary antibody
[11] = target: HER2 on SKBR-3 cells (HER2-positive) (UniProt P04626); assay: flow cytometry on SKBR3 (HER2+) cells, fraction of cells in the positive gate, x axis HER2-BL-1H, Alexa Fluor 488 anti-human IgG secondary antibody
[12] = target: PD-1 on CD3-activated human T cells (PD-1-positive) (human) (UniProt Q15116); assay: flow cytometry on CD3-activated human T cells (PD-1+), fraction of cells in the positive gate, x axis PD-1-BL-1H, Alexa Fluor 488 anti-human IgG secondary antibody
PD-1 on CD3-activated human T cells (PD-1-positive) (human), sequence (Q15116 25-288): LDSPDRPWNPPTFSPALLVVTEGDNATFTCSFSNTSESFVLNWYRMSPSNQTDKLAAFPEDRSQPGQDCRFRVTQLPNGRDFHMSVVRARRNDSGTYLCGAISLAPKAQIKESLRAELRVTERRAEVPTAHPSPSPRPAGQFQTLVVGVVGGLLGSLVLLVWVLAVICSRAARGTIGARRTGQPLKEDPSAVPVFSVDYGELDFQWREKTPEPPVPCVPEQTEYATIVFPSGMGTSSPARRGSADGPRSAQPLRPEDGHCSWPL

Recombinant human PD-1-Fc (R&D Systems), biotinylated (human), sequence (Q15116 25-167 limits assumed): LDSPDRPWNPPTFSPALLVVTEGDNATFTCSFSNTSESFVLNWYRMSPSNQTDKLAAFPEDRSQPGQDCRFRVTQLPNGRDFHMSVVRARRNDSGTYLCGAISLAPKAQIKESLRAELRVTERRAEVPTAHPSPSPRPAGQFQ

Row | percent of cells with fluorescence [1] | Kd [2] | Kd [3] | percent of cells in the positive gate [4] | percent of cells in the positive gate [5] | Kd [6] | Kd [7] | percent of cells in the positive gate [8] | Kd [9] | Positive cell (%) [10] | Positive cell (%) [11] | Positive cell (%) [12] | Substance
1 | > 98% | 0.3 nM | 2.6 nM | 98.2% | 97.3% |  |  |  |  |  |  |  | DAR1 bi-specific antibody (Cetuximab-Trastuzumab Fab) (M-3) (bispecific antibody)
2 | > 98% |  | 2.4 nM |  | 97.9% | < 0.0019 nM | < 0.0019 nM | 99.6% |  |  |  |  | DAR1 bi-specific antibody (Trastuzumab-Cetuximab Fab) (M-4) (bispecific antibody)
3 | > 98% |  | 2.4 nM |  |  |  |  |  | 1.1 nM | 98.9% | 97.2% | 21.4% | Tri-specific antibody (Pembrolizumab Fab-Cetuximab-Trastuzumab Fab) (M-2)
